# Biological target: [2Fe-2S]-bound Mtb-SufU (sulfide transfer protein SufU, Rv1465, of Mycobacterium tuberculosis H37Rv) (Mycobacterium tuberculosis H37Rv) (UniProt O53156)
# Test: SEC-MALS
substance,measurement,value
"[2Fe-2S]-bound Mtb-SufU (sulfide transfer protein SufU, Rv1465, of Mycobacterium tuberculosis H37Rv) (from UniProt O53156 1-162) (natural protein)",stoichiometry N,4

# — article doi:10.1101/2025.06.15.659787
